Source: PMC12075841

B1: NONO (Non-POU domain-containing octamer-binding protein): T440A (protein)
parent chain: MQSNKTFNLEKQNHTPRKHHQHHHQQQHHQQQQQQPPPPPIPANGQQASSQNEGLTIDLKNFRKPGEKTFTQRSRLFVGNLPPDITEEEMRKLFEKYGKAGEVFIHKDKGFGFIRLETRTLAEIAKVELDNMPLRGKQLRVRFACHSASLTVRNLPQYVSNELLEEAFSVFGQVERAVVIVDDRGRPSGKGIVEFSGKPAARKALDRCSEGSFLLTTFPRPVTVEPMDQLDDEEGLPEKLVIKNQQFHKEREQPPRFAQPGSFEYEYAMRWKALIEMEKQQQDQVDRNIKEAREKLEMEMEAARHEHQVMLMRQDLMRRQEELRRMEELHNQEVQKRKQLELRQEEERRRREEEMRRQQEEMMRRQQEGFKGTFPDAREQEIRMGQMAMGGAMGINNRGAMPPAPVPAGTPAPPGPATMMPDGTLGLTPPTTERFGQAATMEGIGAIGGTPPAFNRAAPGAEFAPNKRRRY
B2: NONO (Non-POU domain-containing octamer-binding protein): myc-tagged OGT overexpression (protein)
parent chain: MQSNKTFNLEKQNHTPRKHHQHHHQQQHHQQQQQQPPPPPIPANGQQASSQNEGLTIDLKNFRKPGEKTFTQRSRLFVGNLPPDITEEEMRKLFEKYGKAGEVFIHKDKGFGFIRLETRTLAEIAKVELDNMPLRGKQLRVRFACHSASLTVRNLPQYVSNELLEEAFSVFGQVERAVVIVDDRGRPSGKGIVEFSGKPAARKALDRCSEGSFLLTTFPRPVTVEPMDQLDDEEGLPEKLVIKNQQFHKEREQPPRFAQPGSFEYEYAMRWKALIEMEKQQQDQVDRNIKEAREKLEMEMEAARHEHQVMLMRQDLMRRQEELRRMEELHNQEVQKRKQLELRQEEERRRREEEMRRQQEEMMRRQQEGFKGTFPDAREQEIRMGQMAMGGAMGINNRGAMPPAPVPAGTPAPPGPATMMPDGTLGLTPPTTERFGQAATMEGIGAIGGTPPAFNRAAPGAEFAPNKRRRY

Columns and labels:
[1] = NONO immunostaining, paraspeckle count per nucleus; details: glycan lost; control: NONO WT in NONO-KO HCT116
[2] = NONO immunostaining, speckle count, HCT116; details: glycan gained; control: 5.5 mM glucose, no OGT

Protein	localisation_or_trafficking [1]	localisation_or_trafficking [2]
B1	decreases	
B2		increases
